IntAct's records for PubMed 23624404

Molecular target: rad51_yeast RAD51 (UniProt P25454)
Sequence (P25454 whole entry): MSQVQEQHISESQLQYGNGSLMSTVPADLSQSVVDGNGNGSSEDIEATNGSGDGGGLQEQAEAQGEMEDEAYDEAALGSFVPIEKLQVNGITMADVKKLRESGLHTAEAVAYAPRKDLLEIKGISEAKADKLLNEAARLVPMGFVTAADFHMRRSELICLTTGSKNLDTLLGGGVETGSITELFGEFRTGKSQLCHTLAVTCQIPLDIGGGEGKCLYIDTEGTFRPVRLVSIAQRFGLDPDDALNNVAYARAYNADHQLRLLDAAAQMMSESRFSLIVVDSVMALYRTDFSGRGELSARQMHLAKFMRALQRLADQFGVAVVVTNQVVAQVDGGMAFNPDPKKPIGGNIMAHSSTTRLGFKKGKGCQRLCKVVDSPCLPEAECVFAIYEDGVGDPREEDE

effect of a mutation on the interaction: decreasing interaction strength
Substance: DNA repair and recombination protein RAD52 (Saccharomyces cerevisiae) (from UniProt P06778) K10R;K11R;K220R
